# Assay results reported in patent US20190062453A1 (Hoffmann-La Roche, published 2019).
# Columns and labels:
# [1] = biological target: T1, human DR5 (recombinant, fusion format not stated for the assay) (human, UniProt O14763 56-207); test: binding to human DR5 after stress test, pH 7.4, 2 weeks 40° C., against non-stressed initial material (defined 100%)
# T1 construct: all antigen constructs carry ECD aa 56-207; also called hu DR5; huDR5
# human DR5 ECD-Avi-his = biological target: T2, human DR5 ECD-Avi-his (human, UniProt O14763 56-207); test: SPR (BIAcore 3000), antibody captured by anti-human Fc, monomeric DR5 injected
# T2 construct: also called recombinant human DR5 (monomeric His-Avi fusion protein); monomeric human DR5
# [2] = biological target: T1, human DR5 (recombinant, fusion format …); test: binding to human DR5 after stress test, pH 6.0, 2 weeks 40° C., against non-stressed initial material (defined 100%)
# [3] = biological target: T3, Human FAP ectodomain + poly-lys-tag + his6-tag (human, UniProt Q12884 27-760); test: SPR (Biacore), bispecific antibody bound to immobilised human DR5-Fc, recombinant human FAP as second analyte (simultaneous binding)
# T3 construct: also called recombinant soluble human FAP; hFAP
# [4] = biological target: T4, Murine FAP ectodomain + poly-lys-tag + his6-tag (murine, UniProt P97321 27-761); test: SPR (Biacore), bispecific antibody bound to immobilised human DR5-Fc, recombinant murine FAP as second analyte (simultaneous binding)
# T4 construct: also called recombinant soluble murine FAP
# T4 sequence (P97321 other isoform, or with tags, fused parts or gaps): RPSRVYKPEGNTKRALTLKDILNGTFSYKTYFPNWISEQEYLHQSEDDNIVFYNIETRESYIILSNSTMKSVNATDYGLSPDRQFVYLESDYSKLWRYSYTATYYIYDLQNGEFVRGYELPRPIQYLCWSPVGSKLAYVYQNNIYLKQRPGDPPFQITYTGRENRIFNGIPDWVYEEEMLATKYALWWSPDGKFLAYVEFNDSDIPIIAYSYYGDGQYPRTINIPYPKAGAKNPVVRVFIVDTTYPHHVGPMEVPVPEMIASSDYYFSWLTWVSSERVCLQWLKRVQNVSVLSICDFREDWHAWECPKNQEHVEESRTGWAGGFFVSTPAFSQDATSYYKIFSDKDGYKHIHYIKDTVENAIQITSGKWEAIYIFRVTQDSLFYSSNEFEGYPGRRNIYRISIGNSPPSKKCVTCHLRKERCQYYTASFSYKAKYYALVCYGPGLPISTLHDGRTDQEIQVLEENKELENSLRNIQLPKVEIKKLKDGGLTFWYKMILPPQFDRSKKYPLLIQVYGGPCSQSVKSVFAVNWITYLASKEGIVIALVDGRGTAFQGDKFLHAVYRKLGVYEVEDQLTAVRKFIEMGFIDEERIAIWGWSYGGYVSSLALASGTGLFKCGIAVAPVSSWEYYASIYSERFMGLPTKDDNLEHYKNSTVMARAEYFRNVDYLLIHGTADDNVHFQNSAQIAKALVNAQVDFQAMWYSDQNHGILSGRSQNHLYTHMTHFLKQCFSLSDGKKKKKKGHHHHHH
Relative active concentration as compared to the initial state [1],Kd (human DR5 ECD-Avi-his),koff (human DR5 ECD-Avi-his),kon (human DR5 ECD-Avi-his),Relative active concentration as compared to the initial state [2],binding result [3],binding result [4],Binder
107%,20 nM,0.0052 s⁻¹,260000 M⁻¹ s⁻¹,107%,,,"DR5TAA-0067 (antibody, human IgG1, kappa, L234A L235A, V domains shown, humanized variant of DR5TAA-0011; also called VH7/VL15) VH: EVQLVETGGGLIQPGGSLRLSCAASGFTVSRYAMIWVRQAPGKGLEYIGFITSDGSTYYADSAKGRFTISRDNSKNTLYLQMNSLRAEDTAVYYCARYTYSDGTDLWGRGTLVTVSS VL: DIQMTQSPSTLSASVGDRVTITCRASQSISTYLSWYQQKPGKAPKRLIYKASSLASGVPSRFSGSGSGTEFTLTISSLQPDDAATYYCQPNSGIATYGAAFGGGTKVEIKR"
101%,,,,104%,,,"DR5TAA-0073 (antibody, human IgG1, kappa, L234A L235A, V domains shown, humanized variant of DR5TAA-0011; also called VH17/VL3) VH: QVQLVESGGGLVQPGGSLRLSCSASGFSISRYAMIWVRQAPGKGLEYVGFITSDSSAYYASWAKGRFTISRDNSKNTLYLQMNSLRAEDTAVYYCARYTYSDGTDLWGQGTLVTVSS VL: DIQMTQSPSSLSASVGDRVTITCRASQSISTYLSWYQQKPGKAPKRLIYKASTLASGVPSRFSGSGSGTDFTLTISSLQPEDAATYYCQPNSGIATYGAAFGGGTKVEIKR"
100%,21 nM,0.0056 s⁻¹,270000 M⁻¹ s⁻¹,103%,,,"DR5TAA-0074 (antibody, human IgG1, kappa, L234A L235A, V domains shown, humanized variant of DR5TAA-0011; also called VH7/VL10) VH: EVQLVETGGGLIQPGGSLRLSCAASGFTVSRYAMIWVRQAPGKGLEYIGFITSDGSTYYADSAKGRFTISRDNSKNTLYLQMNSLRAEDTAVYYCARYTYSDGTDLWGRGTLVTVSS VL: DIQMTQSPSSLSASVGDRVTITCRASQSISTYLSWYQQKPGQPPKRLIYKASTLASGVPSRFSGSGSGTDFTLTISSLQPEDFATYYCQPNSGIATYGAAFGGGTKVEIKR"
99%,17 nM,0.0056 s⁻¹,320000 M⁻¹ s⁻¹,102%,,,"DR5TAA-0075 (antibody, human IgG1, kappa, L234A L235A, V domains shown, humanized variant of DR5TAA-0011; also called VH7/VL11) VH: EVQLVETGGGLIQPGGSLRLSCAASGFTVSRYAMIWVRQAPGKGLEYIGFITSDGSTYYADSAKGRFTISRDNSKNTLYLQMNSLRAEDTAVYYCARYTYSDGTDLWGRGTLVTVSS VL: DIQMTQSPSSLSASVGDRVTITCQASQSISTYLSWYQQKPGQPPKRLIYKASTLASGVPSRFSGSGSGTDFTLTISSLQPEDFATYYCQPNSGIATYGAAFGGGTKVEIKR"
98%,15 nM,0.0046 s⁻¹,300000 M⁻¹ s⁻¹,103%,,,"DR5TAA-0071 (antibody, human IgG1, kappa, L234A L235A, humanized variant of DR5TAA-0011; also called VH17/VL15) heavy: not shown light: ADIQMTQSPSTLSASVGDRVTITCRASQSISTYLSWYQQKPGKAPKRLIYKASSLASGVPSRFSGSGSGTEFTLTISSLQPDDAATYYCQPNSGIATYGAAFGGGTKVEIKRTVAAPSVFIFPPSDEQLKSGTASVVCLLNNFYPREAKVQWKVDNALQSGNSQESVTEQDSKDSTYSLSSTLTLSKADYEKHKVYACEVTHQGLSSPVTKSFNRGEC"
101%,,,,103%,,,"DR5TAA-0068 (antibody, human IgG1, kappa, L234A L235A, V domains shown, humanized variant of DR5TAA-0011; also called VH17/VL10) VH: QVQLVESGGGLVQPGGSLRLSCSASGFSISRYAMIWVRQAPGKGLEYVGFITSDSSAYYASWAKGRFTISRDNSKNTLYLQMNSLRAEDTAVYYCARYTYSDGTDLWGQGTLVTVSS VL: DIQMTQSPSSLSASVGDRVTITCRASQSISTYLSWYQQKPGQPPKRLIYKASTLASGVPSRFSGSGSGTDFTLTISSLQPEDFATYYCQPNSGIATYGAAFGGGTKVEIKR"
100%,,,,102%,,,"DR5TAA-0066 (antibody, human IgG1, kappa, L234A L235A, V domains shown, humanized variant of DR5TAA-0011; also called VH7/VL3) VH: EVQLVETGGGLIQPGGSLRLSCAASGFTVSRYAMIWVRQAPGKGLEYIGFITSDGSTYYADSAKGRFTISRDNSKNTLYLQMNSLRAEDTAVYYCARYTYSDGTDLWGRGTLVTVSS VL: DIQMTQSPSSLSASVGDRVTITCRASQSISTYLSWYQQKPGKAPKRLIYKASTLASGVPSRFSGSGSGTDFTLTISSLQPEDAATYYCQPNSGIATYGAAFGGGTKVEIKR"
101%,,,,105%,,,"DR5TAA-0072 (antibody, human IgG1, kappa, L234A L235A, humanized variant of DR5TAA-0011; also called VH17/VL2) heavy: not shown light: DIQMTQSPSTLSASVGDRVTITCRASQSISTYLSWYQQKPGKAPKRLIYKASSLASGVPSRFSGSGSGTEFTLTISSLQPDDAATYYCQPNSGIATYGAAFGGGTKVEIKRTVAAPSVFIFPPSDEQLKSGTASVVCLLNNFYPREAKVQWKVDNALQSGNSQESVTEQDSKDSTYSLSSTLTLSKADYEKHKVYACEVTHQGLSSPVTKSFNRGEC"
,7 nM,0.0024 s⁻¹,350000 M⁻¹ s⁻¹,,,,"DR5TAA-0052 (antibody, human IgG1, kappa, L234A L235A, V domains shown, rabbit variable, human constant regions; also called chimeric form of DR5TAA-0011; chimeric variant) VH: QSVEESGGRLVTPGTPLTLTCTVSGFSISRYAMIWVRQAPGEGLEYIGFITSDSSAYYASWAKGRFTISKTSTTVDLKMTSPTTEDTATYFCARYTYSDGTDLWGPGTLVTVSS VL: DIVMTQTPASVSEPVGGTVTIKCQASQSISTYLSWYQQKPGQPPKRLIYKASTLASGVPSRFKGSGSGTDFTLTIRDLESADAATYYCQPNSGIATYGAAFGGGTEVVVKR"
,,,,,binds,binds,"18F11_28H1 (bispecific antibody, human IgG1, kappa, Printed as '18F11' on the sheet) VH (DR5)-Fc part-VH (FAP)-CL chain: not shown VL (DR5)-kappa light chain: EIVLTQSPGTLSLSPGERATLSCRASQSVSSSYLAWYQQKPGQAPRLLIYGASSRATGIPDRFSGSGSGTDFTLTISRLEPEDFAVYYCQQGQLPPITFGQGTKVEIKRTVAAPSVFIFPPSDEQLKSGTASVVCLLNNFYPREAKVQWKVDNALQSGNSQESVTEQDSKDSTYSLSSTLTLSKADYEKHKVYACEVTHQGLSSPVTKSFNRGEC VLCH1 (FAP) chain: EIVLTQSPGTLSLSPGERATLSCRASQSVSRSYLAWYQQKPGQAPRLLIIGASTRATGIPDRFSGSGSGTDFTLTISRLEPEDFAVYYCQQGQVIPPTFGQGTKVEIKSSASTKGPSVFPLAPSSKSTSGGTAALGCLVKDYFPEPVTVSWNSGALTSGVHTFPAVLQSSGLYSLSSVVTVPSSSLGTQTYICNVNHKPSNTKVDKKVEPKSCD"
,,,,,binds,binds,"DR5TAA-0032 (bispecific antibody, human IgG1, kappa, also called 039-28H1) HC (DR5-crossed FAP): not shown LC (DR5): AQVLTQTPSPVSAAVGGTVTINCQASQSVYNNRLAWYQQKPGQPPKLLIYLASTLASGVPSRFKGSGSGTQFTLTISDLQCDDAATYYCAGGYSGNINAFGGGTEVVVKRTVAAPSVFIFPPSDEQLKSGTASVVCLLNNFYPREAKVQWKVDNALQSGNSQESVTEQDSKDSTYSLSSTLTLSKADYEKHKVYACEVTHQGLSSPVTKSFNRGEC Crossed LC (FAP): EIVLTQSPGTLSLSPGERATLSCRASQSVSRSYLAWYQQKPGQAPRLLIIGASTRATGIPDRFSGSGSGTDFTLTISRLEPEDFAVYYCQQGQVIPPTFGQGTKVEIKSSASTKGPSVFPLAPSSKSTSGGTAALGCLVKDYFPEPVTVSWNSGALTSGVHTFPAVLQSSGLYSLSSVVTVPSSSLGTQTYICNVNHKPSNTKVDKKVEPKSCD"
,,,,,binds,binds,"DR5TAA-0038 (bispecific antibody, human IgG1, kappa) VH (DR5)-Fc part-VH (FAP)-CL chain: not shown VL (DR5)-kappa light chain: EIVLTQSPGTLSLSPGERATLSCRASQSVSSSYLAWYQQKPGQAPRLLIYGASSRATGIPDRFSGSGSGTDFTLTISRLEPEDFAVYYCQQGSQPPITFGQGTKVEIKRTVAAPSVFIFPPSDEQLKSGTASVVCLLNNFYPREAKVQWKVDNALQSGNSQESVTEQDSKDSTYSLSSTLTLSKADYEKHKVYACEVTHQGLSSPVTKSFNRGEC VLCH1 (FAP) chain: EIVLTQSPGTLSLSPGERATLSCRASQSVSRSYLAWYQQKPGQAPRLLIIGASTRATGIPDRFSGSGSGTDFTLTISRLEPEDFAVYYCQQGQVIPPTFGQGTKVEIKSSASTKGPSVFPLAPSSKSTSGGTAALGCLVKDYFPEPVTVSWNSGALTSGVHTFPAVLQSSGLYSLSSVVTVPSSSLGTQTYICNVNHKPSNTKVDKKVEPKSCD"
,,,,,binds,binds,"DR5TAA-0039 (bispecific antibody, human IgG1, kappa, also called DR5 (20F2)-28H1 VHCL 2 + 2) VH (DR5)-Fc part-VH (FAP)-CL chain: not shown VL (DR5)-kappa light chain: EIVLTQSPGTLSLSPGERATLSCRASQSVSSSYLAWYQQKPGQAPRLLIYGASSRATGIPDRFSGSGSGTDFTLTISRLEPEDFAVYYCQQGESPPPTFGQGTKVEIKRTVAAPSVFIFPPSDEQLKSGTASVVCLLNNFYPREAKVQWKVDNALQSGNSQESVTEQDSKDSTYSLSSTLTLSKADYEKHKVYACEVTHQGLSSPVTKSFNRGEC VLCH1 (FAP) chain: EIVLTQSPGTLSLSPGERATLSCRASQSVSRSYLAWYQQKPGQAPRLLIIGASTRATGIPDRFSGSGSGTDFTLTISRLEPEDFAVYYCQQGQVIPPTFGQGTKVEIKSSASTKGPSVFPLAPSSKSTSGGTAALGCLVKDYFPEPVTVSWNSGALTSGVHTFPAVLQSSGLYSLSSVVTVPSSSLGTQTYICNVNHKPSNTKVDKKVEPKSCD"
,,,,,binds,binds,"DR5TAA-0037 (bispecific antibody, human IgG1, kappa) VH (DR5)-Fc part-VH (FAP)-CL chain: not shown VL (DR5)-kappa light chain: EIVLTQSPGTLSLSPGERATLSCRASQSVSSSYLAWYQQKPGQAPRLLIYGASSRATGIPDRFSGSGSGTDFTLTISRLEPEDFAVYYCQQGSNQPVTFGQGTKVEIKRTVAAPSVFIFPPSDEQLKSGTASVVCLLNNFYPREAKVQWKVDNALQSGNSQESVTEQDSKDSTYSLSSTLTLSKADYEKHKVYACEVTHQGLSSPVTKSFNRGEC VLCH1 (FAP) chain: EIVLTQSPGTLSLSPGERATLSCRASQSVSRSYLAWYQQKPGQAPRLLIIGASTRATGIPDRFSGSGSGTDFTLTISRLEPEDFAVYYCQQGQVIPPTFGQGTKVEIKSSASTKGPSVFPLAPSSKSTSGGTAALGCLVKDYFPEPVTVSWNSGALTSGVHTFPAVLQSSGLYSLSSVVTVPSSSLGTQTYICNVNHKPSNTKVDKKVEPKSCD"
